Laboratory results as given in patent publication US20200262894A1 (FRED HUTCHINSON CANCER RESEARCH CENTER, published 2020).
Where a chain is given by its changes, count along the chain named. Non-standard residues stand in square brackets, D forms with d.

T1: STII peptide Ac-C(dPEG4)NWSHPQFEK-amide, maleimide-coupled to BSA carrier protein (also: maleimide-coupled to BSA carrier protein)
T1 construct: on a cytometric bead array as BSA conjugate
T1 peptide: Ac-C[dPEG4]NWSHPQFEK-NH2

T2: STII peptide H2N-CGNWSHPQFEK-amide, maleimide-coupled to BSA carrier protein (also: maleimide-coupled to BSA carrier protein)
T2 construct: on a cytometric bead array as BSA conjugate
T2 peptide: H-CGNWSHPQFEK-NH2

T3: STII peptide H2N-CGNWSHPQFEKGC-OH, maleimide-coupled to BSA carrier protein (cysteine pairing not given here; also: maleimide-coupled to BSA carrier protein)
T3 construct: on a cytometric bead array as BSA conjugate
T3 peptide: H-CGNWSHPQFEKGC-OH

B1: anti-STII monoclonal antibody 4E2 (antibody, V domains shown)
VH: QVQLQQSGAELARPGASVKLSCTASGYTFTSYGITWVRQRTGQGLEWIGEIFPGSGDTSYGEKLKGQATLTTDKSSSTAYMQLSSLTSEDSAVYFCARRYRYIYHAMDYWGQGTSVTVSS
VL: DILMTQTPLSLPVSLGDQASISCRSSQSIVHSNGNTYLEWYLQKPGQSPKLLIYKVSNRFSGVPDRFSGSGSGTDFTLKISRVEAEDLGVYYCFQGSHVPLTFGAGTKLELK
notes: also called 4E2 mAb
B2: anti-STII monoclonal antibody 3E8 (antibody, V domains shown)
VH: EVQLVETGGGFVKPGGSLKLSCAASGFTFSSYGMSWVRQTPEKRLEWVAAITSDGGGTHYPDTVKGRFTISRDFAKNTLYLQMSSLRSEDTAWYFCARHEPRLIAWFAHWGQGTLVTVSA
VL: B1 VL with I2V, N35Y, K55E, S81I, L101W, A105G, L111I
notes: also called 3E8 mAb; STII-specific mAb 3E8
B3: anti-STII monoclonal antibody 5G2 (antibody, V domains shown)
VH: B1 VH with L64F
VL: B1 VL with S81R
notes: also called 5G2 mAb; anti-STII 5G2 mAb

Target: T1, STII peptide …
Assay: flow cytometry, cytometric bead array with BSA-coupled peptides
B1: binds. B2: binds. B3: binds.

Target: T2, STII peptide H2N-CGNWSHPQFEK-amide, …
Assay: as above
B1: binds. B2: binds. B3: binds.

Target: T3, STII peptide H2N-CGNWSHPQFEKGC-OH, …
Assay: as above
B1: binds. B2: binds. B3: binds.
